The text below walks through data of the nanobody polyreactivity screen of Harvey et al. (2022).

This data set can be described thus: yeast display, Sf9 membrane polyspecificity reagent, FACS + sequencing; frameworks hold sequencing errors. Summed up: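 A nanobody's polyreactivity label depends on the gate it was sorted from. Yeast display cells were stained with 10% biotinylated, detergent-solubilized Sf9 membrane reagent for 1 hour at 4 °C, enriched on streptavidin microbeads and sorted by FACS. The low and high (top ~1%) gates were set on anti-HA fluorescence for expression and streptavidin fluorescence for reagent binding.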
As for “QVQLVESGGGLVQAGGSLRLSCAASGSTFSRYAMGWYRQAPGKERELVAAISWGGNTYYADSVKGRFTISRDNAKNTVYLQMNSLKPEDTAVYYCNRYTKLYNTMDYWGQGTQVTVSS”, the “polyreactivity (PSR sort gate)” value is on record as “high polyreactivity”.

Turning to “QVQLVESGGGLVQAGGSLRLSCAASGSTFSRYAMGWYRQAPGKERELVAAITRSGGGTHYADSVKGRFTISRDNAKNTVYLQMNSLKPEDTAVYYCNVAGVLYPFVSYDYWGQGTQVTVSS”, the “polyreactivity (PSR sort gate)” value was “low polyreactivity”. As for “QVQLVESGGGLVQAGGSLRLSCAASGSTFSRYTMGWYRQAPGKERELVAAIRRSGASTYYADSVKGRFTISRDNAKNTVYLQMNSLKPEDTAVYYCAVGRYRYGYWGQGTQVTVSS”, the “polyreactivity (PSR sort gate)” value is reported as “high polyreactivity”. The result for “QVQLVESGGGLVQAGGSLRLSCAASGSTFSRYTMGWYRQAPGKERELVASITRGGSTNYADSVKGRFTISRDNAKNTVYLQMNSLKPEDTAVYYCAARTARVSRYDYWGQGTQVTVSS” reads “high polyreactivity”; that for “QVQLVESGGGLVQAGGSLRLSCAASGSTFSSNAMGWYRQAPGKERELVAAISSGGSTNYADSVKGRFTISRDNAKNTVYLQMNSLKPEDTAVYYCAADRSPEYYWGQGTQVTVSS”, “low polyreactivity”; that for “QVQLVESGGGLVQAGGSLRLSCAASGSTFSSYAMGWYRPAPGKERELVARITSGGSTYYADSVKGRFTISRDNAKNTVYLQMNSLKPEDTAVYYCAARGYYYRSRVSQFKYDYWGQGTQVTVSS”, “high polyreactivity”.

Take “QVQLVESGGGLVQAGGSLRLSCAASGSTFSSYAMGWYRQAPGKERELVAAISTSGGRTYYADSVKGRFTISRDNAKNTVYLQMNSLKPEDTAVYYCAKKGIGYVRYYYWGQGTQVTVSS”: the “polyreactivity (PSR sort gate)” value is given as “high polyreactivity”. The result for “QVQLVESGGGLVQAGGSLRLSCAASGSTFSSYAMGWYRQAPGKERELVAAITSGGSTNYADSVKGRFTISRDNAKNTVYLQMNSLKPEDTAVYYCNAQINDFIFVYDYWGQGTQVTVSS” reads “low polyreactivity”; that for “QVQLVESGGGLVQAGGSLRLSCAASGSTFSSYGMGWYRQAPGKERELVASITIRGGSTYYADSVKGRFTISRDNAKNTVYLQMNSLKPEDTAVYYCAADVTNRGTWVIYGYYYWGQGTQVTVSS”, “low polyreactivity”; that for “QVQLVESGGGLVQAGGSLRLSCAASGSTFSSYTMGWYRQAPGKERELVATINSRGDNTYYADSVKGRFTISRDNAKNTVYLQMNSLKPEDTAVYYCAARSRRHDFDYWGQGTQVTVSS”, “high polyreactivity”.

With “QVQLVESGGGLVQAGGSLRLSCAASGSTFSTNAMGWYRQAPGKERELVARISAGRTNYADSVKGRFTISRDNAKNTVYLQMNSLKPEDTAVYYCNADYQYNRYSRVVGGHYYWGQGTQVTVSS”, the “polyreactivity (PSR sort gate)” value was “low polyreactivity”.

For “QVQLVESGGGLVQAGGSLRLSCAASGSTFSTYAMGWYRQAPGKERELVAAIRWSGGSTYYADSVKGRFTISRDNAKNTVYLQMNSLKPEDTAVYYCATDAPDRTDSDSGFDAGYDYWGQGTQVTLSS”, the “polyreactivity (PSR sort gate)” value was “low polyreactivity”.

As to “QVQLVESGGGLVQAGGSLRLSCAASGSTFSTYAMGWYRQAPGKERELVAAITSSGGSTYYADSVKGRFTISRDNAKNTVYLQMNSLKPEDTAVYYCAAGRGYWWWYGYDYWGQGTQVTVSS”, the “polyreactivity (PSR sort gate)” value is given as “low polyreactivity”. The result for “QVQLVESGGGLVQAGGSLRLSCAASGSTFSTYAMGWYRQAPGKERELVARITVSVGSTYYADSVKGRFTMSRDNAKNTVYLQMNSLKPEDTAVYYCAVGSDEVYFVGDYEYWGQGTQVTVSS” reads “low polyreactivity”; that for “QVQLVESGGGLVQAGGSLRLSCAASGSTFSVNAMGWYRQAPGKEREFVAAITGDGVTTYYADSVKGRFTISRDNAKNTVYLQMNSLKPEDTAVYYCAAEDIRQTTGYDYWGQGTQVTVSS”, “high polyreactivity”. Take “QVQLVESGGGLVQAGGSLRLSCAASGSTFSVNAMGWYRQAPGKEREFVARITWRGGSTYYADSVKRRFTISRDNAKNTVYLPMNSLKPEDTAVYYCAATLRYWWRSSYEDYYWGQGTQVTVSS”: the “polyreactivity (PSR sort gate)” value is reported as “low polyreactivity”. The result for “QVQLVESGGGLVQAGGSLRLSCAASGSTFSVYAMGWYRQAPGKERELVASISSSVGRTFYADSVKGRFTISRDNSKNTVYLQMNSLKPEDTAVYYCNAGVRYSGFDYWGQGTQVTVSS” reads “high polyreactivity”; that for “QVQLVESGGGLVQAGGSLRLSCAASGSTFSVYGMGWYRQGPGKERELVAAISGYGSRRYYADSLKGRFTISRDNAKNTVYLQMNSLKPEDTAVYYCAAVRRLLQGRTMYYWGQGTQVTVSS”, “high polyreactivity”; that for “QVQLVESGGGLVQAGGSLRLSCAASGSTFSVYTMGWYRQAPGKERELVAAITSGGTYYADSVKGRFTISRDNAKNTVYLQMNSLKPEDTAVYYCAADVLSVGKHYDYWGQCTQVTVSS”, “low polyreactivity”.

In the case of “QVQLVESGGGLVQAGGSLRLSCAASGSTFSVYTMGWYRQAPGKERELVATISGGGSTYYADSVKGRFTISRDNAKNTVYLQMNSLKPEDTAVYYCNAQGYGIFTSSLDYWGQGTQVTVSS”, the “polyreactivity (PSR sort gate)” value is reported as “low polyreactivity”. For the sequence “QVQLVESGGGLVQAGGSLRLSCAASGSTFSWNTMGWYRQAPGKERELVAAISRRGGSTYYADSVKGRFTISRDNAKNTVYLQMNSLKPEDTAVYYCNAKYYYGHRPATAGRYYYWGQGTQVTVSS”, the “polyreactivity (PSR sort gate)” value is “high polyreactivity”. “QVQLVESGGGLVQAGGSLRLSCAASGSTFSWYAMGWYRQAPGKERELVATITGSGGSTYYADSVKGRFTISRDNAKNTVYLQMNSLKPEDTAVYYCALDRGYTRWIASHSYQYDYWGQGTQETVSS”: the “polyreactivity (PSR sort gate)” value is listed as “low polyreactivity”. The result for “QVQLVESGGGLVQAGGSLRLSCAASGSTFSWYSMGWYRQAPGKQRELVAAISSRGGRTYYADSVKGRFTISRDNAKNTVYLQMNSLKPDDTAVYFCAARSRRGEYDYWGQGTQVTVSS” reads “high polyreactivity”; that for “QVQLVESGGGLVQAGGSLRLSCAASGSTFSYNAMGWYRQAPGKERELVAAIRTSGGRTYYADSVKGRFTISRDNAKNTVYLQMNSLKPEDTAVYYCAKRWVYRYGYEYWGQGTQVTVSS”, “high polyreactivity”; that for “QVQLVESGGGLVQAGGSLRLSCAASGSTFSYNAMGWYRQAPGKERELVAAISKSGGSTSYADSVKGRFTISRDNAKNTVYLQMNSQKPEDTAVYYCNARYSRKYGYWGQGTQVTVSS”, “high polyreactivity”. The result for “QVQLVESGGGLVQAGGSLRLSCAASGSTFSYNAMGWYRQAPGKERELVAAISRGDVSTYYADSVKGRFTISRDNAKNTVYLQMNSLKPEDTAVYYCAAYWYGSQYKWRYDYWGQGTQVTVSS” reads “low polyreactivity”; that for “QVQLVESGGGLVQAGGSLRLSCAASGSTFSYYAMGWYRQAPGKERELVAAITTSGGRTYYADSVKGRFTISRDNAKNTVYLQMNSLKPEDTAVYYCNARSGRLGDYWGQGTQVTVSS”, “high polyreactivity”. Regarding “QVQLVESGGGLVQAGGSLRLSCAASGSTFSYYGMGWSRQAPGKERELVAAISWSGGSTYYADSVKGRFTISRDNAKNTVYLQMNSLKPEDTAVYYCARLDSAAEPRQYDYWGQGTQVTVSS”, the “polyreactivity (PSR sort gate)” value is listed as “high polyreactivity”. The result for “QVQLVESGGGLVQAGGSLRLSCAASGSTFSYYPMGWYREAPGQERELVAAISSRGSSTYYADSVKGRFTISRDNAKNTVYLQMNSLKPEDTAVYYCNAERVVYKWYDYWGQVTQVTVSS” reads “high polyreactivity”.

For “QVQLVESGGGLVQAGGSLRLSCAASGSTFSYYTMGWYRQAPGKEREFVAAISNSGSRTYYADSVKGRFTISRDNAKNTVYLQMNSLKPEDTAVYYCNAAYGYRFPRDYWGQGTQVIVSS”, the “polyreactivity (PSR sort gate)” value was “high polyreactivity”. The result for “QVQLVESGGGLVQAGGSLRLSCAASGSTFTANALGWYRQAPGKERELVAAITKSGGDTYYADSVKGRFTISRDNAKNTVYLQMNSLKPEDTAVYYCAAESSYFVALTQFYTVEFYYWGQGTQVTVSS” reads “low polyreactivity”; that for “QVQLVESGGGLVQAGGSLRLSCAASGSTFTAYGMGWYRQAPGKERELVAAITWRGGRTYYADSVKGRFTISRDNAKNTVYLQMNSLKPEDTAVYYCAKGAVWRYTTKYGYDYWGQGTQVTVSS”, “high polyreactivity”.

For “QVQLVESGGGLVQAGGSLRLSCAASGSTFTAYTMGWYRQAPGKERELVAAISKIGTRTYYADSVKGRFTISRDNAKNTVYLQMNSLKPEDTAVYYCATGRSRVYNGRGDYWGQGTQVTVSS”, the “polyreactivity (PSR sort gate)” value was “high polyreactivity”. The result for “QVQLVESGGGLVQAGGSLRLSCAASGSTFTDYAMGWYRQAPGKERELVAAIDSGGITNYADSVKGRFTISRDNAKNTVYLQMNSLKPEDTAVYYCAVEGEYLTPSGRYRLDYWGQGTQVTVSS” reads “low polyreactivity”; that for “QVQLVESGGGLVQAGGSLRLSCAASGSTFTDYDMGWYRQAPGKERELVAAITSGGSTNYADSVKGRFTISRDNAKNTVYLQMISLKPEDTAVYYCAAADADRKYDYWGQGTQVTVSS”, “low polyreactivity”. The result for “QVQLVESGGGLVQAGGSLRLSCAASGSTFTDYTMGWYRQAPGKERELVAVISQSGGSTYYADSVKGRFTISRDNAKNTVYLQMNSLKPEDTAVYYCAADPREDNQDRYYWGQGTQVTVSS” reads “high polyreactivity”. The result for “QVQLVESGGGLVQAGGSLRLSCAASGSTFTFYAMGWYRQAPGKERELVATISSSGGSTYYADSVKGRFTISRDNAKNTVYLQMNSLKPEDTAVYYCTATTAPRDGKWQGGMDYWGQGTQVTVSS” reads “low polyreactivity”. As for “QVQLVESGGGLVQAGGSLRLSCAASGSTFTGNAMGWYRQAPGKERELVASIRSGATTYYADSVKGRFTISRDNAKNTVYLQMNSLKPEDTAVYYCAKRYLGRRGDVYYWGQGTQVTVSS”, the “polyreactivity (PSR sort gate)” value was “high polyreactivity”. The result for “QVQLVESGGGLVQAGGSLRLSCAASGSTFTGNDMGWYRQAPGKERELVASIRRGDRTYYADSVKGRFTISRDNAKNTVYLQMNSLKREDTAVYYCAKPVWWRVYRHGGRFGYWGQGTQVTVSS” reads “low polyreactivity”; that for “QVQLVESGGGLVQAGGSLRLSCAASGSTFTGYAMGWYRQAPGQERELVAAISRSGGSTYYADSVKGRFTISRDNAKNTVYLQMNSLKPEDTAVYYCNARGFTRYTVGRNYWGQGTQVTVSS”, “high polyreactivity”; that for “QVQLVESGGGLVQAGGSLRLSCAASGSTFTINAKGWYRQAPGKERELVAAISWSGGTTYYADSVKGRFTISRDNAKNTVYLQMTSLKPEDTAVYYCAARSYYGYDYWGQGTQVTVSS”, “high polyreactivity”.
